# In patent publication US20150258180A1 (UNIVERSITY OF MANITOBA, published 2015):
# T1: human GM2 activator protein (GM2AP), recombinant, P17900
# T1 chain: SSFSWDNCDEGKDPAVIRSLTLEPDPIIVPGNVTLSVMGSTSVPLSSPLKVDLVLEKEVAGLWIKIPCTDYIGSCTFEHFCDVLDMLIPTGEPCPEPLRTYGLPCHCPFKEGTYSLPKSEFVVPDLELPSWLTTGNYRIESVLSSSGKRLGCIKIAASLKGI
# B1: mature variant α-subunit homodimer (500 mM NaCl DEAE fraction) (protein)
# chain: LWPWPQNFQTSDQRYVLYPNNFQFQYDVSSAAQPGCSVLDEAFQRYRDLLFGSGSWPRPYLTGKRHTLEKNVLVVSVVTPGCNQLPTLESVENYTLTINDDQCLLLSETVWGALRGLETFSQLVWKSAEGTFFINKTEIEDFPRFPHRGLLLDTSRHYLPLKSILDTLDVMAYNKLNVFHWHLVDDQSFPYESFTFPELMRKGSYSLSHIYTAQDVKEVIEYARLRGIRVLAEFDTPGHTLSWGPGIPGLLTPCYSGSEPSGTFGPVNPSLNNTYEFMSTFFLEVSSVFPDFYLHLGGDEVDFTCWKSNPEIQDFMRKKGFGEDFKQLESFYIQTLLDIVSSYGKGYVVWQEVFDNKVKIQPDTIIQVWREDIPVNYMKELELVTKAGFRALLSAPWYLNRISYGQDWRKFYKVEPLAFEGTPEQKALVIGGEACMWGEYVDATNLVPRLWPRAGAVAERLWSNKLTRDMDDAYDRLSHFRCELVRRGVAAQPLYAGYCNQEFEQT
# B2: secreted variant β-hexosaminidase protein in conditioned media (enzyme)
# chain: B1 chain
# modifications: mannose-6-phosphate on Asn-linked oligosaccharides
# B3: Hex A (β-hexosaminidase A), purified from human placenta (protein)
# chain 1: LWPWPQNFQTSDQRYVLYPNNFQFQYDVSSAAQPGCSVLDEAFQRYRDLLFGSGSWPRPYLTGKRHTLEKNVLVVSVVTPGCNQLPTLESVENYTLTINDDQCLLLSETVWGALRGLETFSQLVWKSAEGTFFINKTEIEDFPRFPHRGLLLDTSRHYLPLSSILDTLDVMAYNKLNVFHWHLVDDPSFPYESFTFPELMRKGSYNPVTHIYTAQDVKEVIEYARLRGIRVLAEFDTPGHTLSWGPGIPGLLTPCYSGSEPSGTFGPVNPSLNNTYEFMSTFFLEVSSVFPDFYLHLGGDEVDFTCWKSNPEIQDFMRKKGFGEDFKQLESFYIQTLLDIVSSYGKGYVVWQEVFDNKVKIQPDTIIQVWREDIPVNYMKELELVTKAGFRALLSAPWYLNRISYGPDWKDFYIVEPLAFEGTPEQKALVIGGEACMWGEYVDNTNLVPRLWPRAGAVAERLWSNKLTSDLTFAYERLSHFRCELLRRGVQAQPLNVGFCEQEFEQT
# chain 2: TQVQQLLVSITLQSECDAFPNISSDESYTLLVKEPVAVLKANRVWGALRGLETFSQLVYQDSYGTFTINESTIIDSPRFSHRGILIDTSRHYLPVKIILKTLDAMAFNKFNVLHWHIVDDQSFPYQSITFPELSNKGSYSLSHVYTPNDVRMVIEYARLRGIRVLPEFDTPGHTLSWGKGQKDLLTPCYSRQNKLDSFGPINPTLNTTYSFLTTFFKEISEVFPDQFIHLGGDEVEFKCWESNPKIQDFMRQKGFGTDFKKLESFYIQKVLDIIATINKGSIVWQEVFDDKAKLAPGTIVEVWKDSAYPEELSRVTASGFPVILSAPWYLDLISYGQDWRKYYKVEPLDFGGTQKQKQLFIGGEACLWGEYVDATNLTPRLWPRASAVGERLWSSKDVRDMDDAYDRLTRHRCRMVERGIAAQPLYAGYCNHENM
# B4: Hex B (β-hexosaminidase B), purified from human placenta (protein)
# chain: B3 chain 2
# Tests used:
# [1] = target: T1, human GM2 activator protein (GM2AP), …
# [2] = target: plasma membrane mannose-6-phosphate receptor of human Tay-Sachs fibroblasts (human, UniProt P11717 41-2491); test: cell-based or functional assay
# Chain of plasma membrane mannose-6-phosphate receptor of human Tay-Sachs fibroblasts (P11717 41-2491): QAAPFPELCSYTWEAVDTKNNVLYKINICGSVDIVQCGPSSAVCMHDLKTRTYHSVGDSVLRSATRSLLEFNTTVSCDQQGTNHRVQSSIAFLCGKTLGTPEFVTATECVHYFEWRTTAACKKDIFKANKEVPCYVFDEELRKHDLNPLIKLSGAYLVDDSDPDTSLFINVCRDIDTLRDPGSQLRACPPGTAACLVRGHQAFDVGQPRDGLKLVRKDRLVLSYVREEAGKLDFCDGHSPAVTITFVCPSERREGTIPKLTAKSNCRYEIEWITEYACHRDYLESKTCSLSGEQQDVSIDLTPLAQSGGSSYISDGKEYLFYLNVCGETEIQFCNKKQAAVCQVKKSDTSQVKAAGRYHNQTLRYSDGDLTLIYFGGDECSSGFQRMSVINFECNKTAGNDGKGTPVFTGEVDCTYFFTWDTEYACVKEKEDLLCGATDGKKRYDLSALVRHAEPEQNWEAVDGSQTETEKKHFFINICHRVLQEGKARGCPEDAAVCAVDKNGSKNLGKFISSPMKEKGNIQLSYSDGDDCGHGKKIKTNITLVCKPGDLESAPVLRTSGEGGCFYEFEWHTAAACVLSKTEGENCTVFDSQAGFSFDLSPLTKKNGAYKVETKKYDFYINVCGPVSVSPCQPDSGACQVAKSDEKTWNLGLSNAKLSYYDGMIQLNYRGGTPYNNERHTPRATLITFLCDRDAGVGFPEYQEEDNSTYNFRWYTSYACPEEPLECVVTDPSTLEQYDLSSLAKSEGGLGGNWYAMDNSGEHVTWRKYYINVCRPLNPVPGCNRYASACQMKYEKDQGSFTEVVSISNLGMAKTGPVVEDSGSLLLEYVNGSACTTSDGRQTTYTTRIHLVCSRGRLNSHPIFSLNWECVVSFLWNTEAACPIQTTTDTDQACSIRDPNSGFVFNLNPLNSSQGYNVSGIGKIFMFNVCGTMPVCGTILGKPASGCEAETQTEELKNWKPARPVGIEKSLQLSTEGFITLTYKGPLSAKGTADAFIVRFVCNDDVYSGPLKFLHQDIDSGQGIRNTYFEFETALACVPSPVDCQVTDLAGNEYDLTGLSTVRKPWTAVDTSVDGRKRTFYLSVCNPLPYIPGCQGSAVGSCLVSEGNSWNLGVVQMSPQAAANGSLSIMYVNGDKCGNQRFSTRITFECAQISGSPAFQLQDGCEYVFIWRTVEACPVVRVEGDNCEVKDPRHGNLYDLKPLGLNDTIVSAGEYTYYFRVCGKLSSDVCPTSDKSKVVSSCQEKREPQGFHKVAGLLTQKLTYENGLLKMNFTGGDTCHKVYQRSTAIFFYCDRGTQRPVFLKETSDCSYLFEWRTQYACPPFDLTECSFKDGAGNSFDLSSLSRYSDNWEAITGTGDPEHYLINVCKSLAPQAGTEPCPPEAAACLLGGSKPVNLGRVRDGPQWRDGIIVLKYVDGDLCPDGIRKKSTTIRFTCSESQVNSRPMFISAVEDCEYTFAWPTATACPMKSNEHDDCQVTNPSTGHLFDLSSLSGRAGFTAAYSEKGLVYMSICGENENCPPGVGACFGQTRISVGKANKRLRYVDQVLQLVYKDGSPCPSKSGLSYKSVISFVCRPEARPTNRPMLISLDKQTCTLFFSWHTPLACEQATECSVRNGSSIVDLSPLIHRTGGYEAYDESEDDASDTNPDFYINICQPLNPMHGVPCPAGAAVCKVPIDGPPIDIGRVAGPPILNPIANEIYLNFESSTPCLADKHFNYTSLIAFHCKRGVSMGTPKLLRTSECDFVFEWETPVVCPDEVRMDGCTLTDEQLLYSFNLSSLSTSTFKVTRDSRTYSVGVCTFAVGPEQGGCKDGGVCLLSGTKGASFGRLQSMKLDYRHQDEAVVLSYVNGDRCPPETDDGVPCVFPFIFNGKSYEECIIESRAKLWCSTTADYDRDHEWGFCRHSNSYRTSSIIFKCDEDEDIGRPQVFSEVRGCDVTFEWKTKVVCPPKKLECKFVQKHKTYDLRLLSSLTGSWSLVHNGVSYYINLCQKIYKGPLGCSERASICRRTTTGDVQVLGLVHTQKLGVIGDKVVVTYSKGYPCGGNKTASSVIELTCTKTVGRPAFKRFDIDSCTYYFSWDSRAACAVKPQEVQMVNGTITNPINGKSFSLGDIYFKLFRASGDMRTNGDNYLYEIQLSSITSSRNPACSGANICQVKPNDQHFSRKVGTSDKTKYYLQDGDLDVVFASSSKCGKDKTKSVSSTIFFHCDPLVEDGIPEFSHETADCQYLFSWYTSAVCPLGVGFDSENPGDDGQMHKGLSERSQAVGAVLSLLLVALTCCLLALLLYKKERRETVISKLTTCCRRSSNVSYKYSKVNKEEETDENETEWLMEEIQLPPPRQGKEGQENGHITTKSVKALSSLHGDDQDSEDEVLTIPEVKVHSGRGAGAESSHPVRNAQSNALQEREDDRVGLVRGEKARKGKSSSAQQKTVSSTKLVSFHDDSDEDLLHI
binder,measurement,setting,value
B1,"NBD-GM3 produced in the overnight in vitro NBD-GM2 hydrolysis assay (liposomes plus rGM2AP), against Hex A at the same number of MUG units",[1],the variant protein produces at least twice as much NBD-GM3 as Hex A
same,detectable NBD-GM3 in the in vitro NBD-GM2 hydrolysis assay with human GM2AP,[1],Only the assay containing Hex A or the variant protein produced detectable levels of NBD-GM3
B2,fold increase in intracellular MUGS activity of untransfected TSD fibroblasts grown in conditioned media,[2],~38 fold
same,fold increase in intracellular MUGS activity of untransfected TSD fibroblasts grown in conditioned media containing 5 mM mannose-6-phosphate,[2],~10 fold
B3,detectable NBD-GM3 in the in vitro NBD-GM2 hydrolysis assay with human GM2AP,[1],Only the assay containing Hex A or the variant protein produced detectable levels of NBD-GM3
B4,"detectable NBD-GM3 in the in vitro NBD-GM2 hydrolysis assay with human GM2AP (none for Hex B, the negative control)",[1],Only the assay containing Hex A or the variant protein produced detectable levels of NBD-GM3
